Reference: patent US9863962, “Aptamers and sensing technology used for detection of glycated hemoglobin in whole blood” (Alfaisal University)

Key:
[1] = biological target: T1, glycated hemoglobin HbA1c (UniProt P69905;P68871 P69905:2-142,P68871:2-147); assay: impedance screen at 25 nM aptamer; lower signal than top five; settings: tags: none; purified HbA1C from Monojo (Amman, Jordan); immobilized on cysteamine/PDITC gold electrode; chain copies: 2
Experimental: (§1) Binding analysis of the aptamer sequences to Hb and HbA1C: In order to test the binding affinity of the aptamer sequences to their protein targets, some representative sequences were synthesized after eliminating the primers sequence. A solution of 25 nM from each aptamer sequence in binding buffer was incubated with the Hb and HbA1C-modified electrodes (described in section 2.3.4) for 30 min. The electrodes were then washed with binding buffer and impedance measurements were recorded in 5 mM [Fe(CN)_6]^{3-/4-} redox couple. The binding was then evaluated by calculating the % $RCT$ change)((R−R°/R°%).
Binding affinity analysis of the aptamers: Eight representative sequences were subjected to initial binding analysis. Initial screening of the aptamer sequences (G11, G23, G20, G18, G15, G10, G22, G4) was performed using EIS to confirm their successful binding to HbA1C (FIG. 2A).

[2] = biological target: T1, glycated hemoglobin HbA1c; assay: impedance; HbA1C-specific, Kd stated only as nanomolar range; settings: tags: none; purified HbA1C from Monojo (Amman, Jordan); immobilized on cysteamine/PDITC gold electrode; chain copies: 2
Experimental: as §1
A significant change in the $Rct$ after the incubation of most of the tested aptamers with the HbA1C electrodes while no response was obtained with scrambled DNA sequence (control DNA) indicating specific binding of the aptamers to HbA1C. […] The highest change in EIS signal was obtained for aptamers G11, G23, G18, G20, G15, therefore these aptamers were subjected to further analysis to assess their binding affinity. The dissociation constants were determined by incubating different concentrations of the aptamers with Hb and HbA1C-modified electrodes. […] The K_d were then calculated from the binding curve using non linear regression analysis. […] Four HbA1C-specific aptamers with high affinity and specificity were obtained (G11, G18, G20, G23). […] The aptamer sequences may be made in full or part of it may be used for binding studies. Thus, from our SELEX screening, an aptamer that bind to the tHb (G15) as well as specific aptamers to HbA1C (G20) were obtained.

[3] = biological target: T1, glycated hemoglobin HbA1c; assay: electrochemical impedance on HbA1C-gold electrode; 50 mM Tris pH 7.5, 150 mM NaCl, 2 mM MgCl2; settings: tags: none; purified HbA1C from Monojo (Amman, Jordan); immobilized on cysteamine/PDITC gold electrode; chain copies: 2
Experimental: as §1
(§2) A significant change in the $Rct$ after the incubation of most of the tested aptamers with the HbA1C electrodes while no response was obtained with scrambled DNA sequence (control DNA) indicating specific binding of the aptamers to HbA1C. […] The highest change in EIS signal was obtained for aptamers G11, G23, G18, G20, G15, therefore these aptamers were subjected to further analysis to assess their binding affinity. The dissociation constants were determined by incubating different concentrations of the aptamers with Hb and HbA1C-modified electrodes. […] The K_d were then calculated from the binding curve using non linear regression analysis. […] Four HbA1C-specific aptamers with high affinity and specificity were obtained (G11, G18, G20, G23). […]

[4] = biological target: T2, bovine serum albumin (BSA) (Bos taurus, UniProt P02769 P02769:25-607); assay: impedance; specificity control; settings: tags: none; Sigma
Experimental: The binding specificity of the HbA1C aptamer (G20) was also confirmed by incubating the HbA1C modified electrode with different concentrations of non glycated Hb and BSA as control. No significant response was obtained for the non specific proteins which indicates excellent specificity of the selected aptamer (FIG. 3). Similarly, the specificity of the tHb aptamer (G15) was verified against BSA as control. The two aptamers, G15 and G20, were then applied for Hb and HbA1C detection a microarray platform.

[5] = biological target: T3, hemoglobin (Hb, non-glycated / total Hb) (UniProt P69905;P68871 P69905:2-142,P68871:2-147); assay: electrochemical impedance on Hb-gold electrode; 50 mM Tris pH 7.5, 150 mM NaCl, 2 mM MgCl2; settings: tags: none; purified Hb from Monojo (Amman, Jordan); immobilized on cysteamine/PDITC gold electrode; chain copies: 2
Experimental: as §1, §2

[6] = biological target: T2, bovine serum albumin (BSA); assay: square wave voltammetry; no response with BSA; settings: tags: none; Sigma
Experimental: (§3) For the Hb and HbA1C detection and selectivity experiments, each aptamer-modified electrode on the aptasensor array chip was incubated for 30 min with specific concentrations of Hb and HbA1C standard solutions. The electrodes were then washed with 50 mM Tris-HCl buffer pH 7.4 and subjected to square wave voltammetry (SWV) measurements in 10 mM [Fe(CN)_6]^{3-/4-} redox couple in 0.1 M PBS buffer solution. The parameters used for the SWV measurements: amplitude 20 mV; interval time 0.04 s; step potential −5 mV; scan rate 125 mV s-1, and frequency 25 Hz. The cyclic voltammetry (CV) experiments were conducted at a scan rate of 100 mV/s.
(§4) Dose response of the aptasensors: The aptasensors voltammetric response toward tHb and HbA1C was measured in the concentration range of 100 pg/mL to 10 µg/mL. […] Three independent measurements were done for each data point in order to assess the reproducibility of the aptasensors array. […] The linear regression equation of the HbA1C aptasensor is (i°–i)/ i°%=45.0+14.6×log C [ng/ml], R=0.997, with a detection limit (LOD) of 0.2 ng/mL and for the tHb: (i°−i)/i°%=42.5+20.2×log C [ng/ml], R=0.98, with LOD=0.34 ng/ml. The LOD was calculated from 3(S_{y/x}/m), where S_{y/x} is the standard error of estimate and m is the slope of the calibration curve. […]

[7] = biological target: T3, hemoglobin (Hb, non-glycated / total Hb); assay: square wave voltammetry aptasensor on AuNP electrode; LOD 0.34 ng/mL; settings: tags: none; purified Hb from Monojo (Amman, Jordan); immobilized on cysteamine/PDITC gold electrode; chain copies: 2
Experimental: as §3, §4

[8] = biological target: T2, bovine serum albumin (BSA); assay: impedance; no significant response; settings: tags: none; Sigma
[9] = biological target: T1, glycated hemoglobin HbA1c; assay: square wave voltammetry aptasensor on AuNP electrode; LOD 0.2 ng/mL; settings: tags: none; purified HbA1C from Monojo (Amman, Jordan); immobilized on cysteamine/PDITC gold electrode; chain copies: 2
Experimental: as §3, §4

T1 sequence (P69905 2-142, chain 1 of 2): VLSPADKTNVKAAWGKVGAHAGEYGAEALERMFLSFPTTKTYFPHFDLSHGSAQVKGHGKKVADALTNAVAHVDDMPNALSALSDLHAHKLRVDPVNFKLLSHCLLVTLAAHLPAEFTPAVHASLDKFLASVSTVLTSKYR
T1 sequence (P68871 2-147, chain 2 of 2): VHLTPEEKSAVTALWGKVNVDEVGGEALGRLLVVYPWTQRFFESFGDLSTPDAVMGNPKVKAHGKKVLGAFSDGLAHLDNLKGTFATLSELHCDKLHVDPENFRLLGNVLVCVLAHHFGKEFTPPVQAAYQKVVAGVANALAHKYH
T2 sequence (P02769 25-607, one chain of several): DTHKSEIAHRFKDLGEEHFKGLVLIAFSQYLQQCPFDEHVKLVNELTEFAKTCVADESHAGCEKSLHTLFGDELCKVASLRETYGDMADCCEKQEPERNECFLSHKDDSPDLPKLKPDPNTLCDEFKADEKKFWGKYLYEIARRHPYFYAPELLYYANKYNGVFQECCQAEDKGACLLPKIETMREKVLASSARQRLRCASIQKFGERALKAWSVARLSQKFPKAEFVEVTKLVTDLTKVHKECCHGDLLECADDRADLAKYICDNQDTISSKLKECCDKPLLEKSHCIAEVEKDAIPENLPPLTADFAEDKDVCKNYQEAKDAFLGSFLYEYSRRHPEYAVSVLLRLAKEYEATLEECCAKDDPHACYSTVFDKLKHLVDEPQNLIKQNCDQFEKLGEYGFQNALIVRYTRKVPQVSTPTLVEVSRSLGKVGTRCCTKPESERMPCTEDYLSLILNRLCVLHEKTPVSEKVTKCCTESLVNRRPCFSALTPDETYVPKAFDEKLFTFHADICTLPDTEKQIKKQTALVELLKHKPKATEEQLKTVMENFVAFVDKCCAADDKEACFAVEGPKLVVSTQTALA
T3 sequence (P69905 2-142, chain 1 of 2): as the sequence (P69905 2-142, chain 1 of 2) above
T3 sequence (P68871 2-147, chain 2 of 2): as the sequence (P68871 2-147, chain 2 of 2) above

B1: G4 (ssDNA)
DNA: GGGCCGACGGGAGGGGGAGGGAGAGCAATACGAGGTGGGATGGCAGATTATGGGTGCACT
binding result [1]: binds

B2: G23 (ssDNA)
DNA: GGACACGGCAAAGGGGTATAGCCTACCGGACCGTGGACATGGAATTGTGTGCTGCGTGG
binding result [2]: binds

B3: G11 (ssDNA)
DNA: CGACACCAGCACACAGACCCGAGACACACGTCAGATCAACAGCGACCGTATCATTGGTTG
binding result [2]: binds

B4: G15 (ssDNA)
DNA: ACGCACACCAGAGACAAGTAGCCCCCCAAACGCGGCCACGGAACGCAGCACCTCCATGGC
Kd [3]: 3.3 nM | binding result [4]: no binding | Kd [5]: 2.7 nM

B5: thiol-G15 (ssDNA)
DNA: B4 DNA
modifications: 5' HS-(CH2)6
binding result [6]: no binding | binding result [7]: binds

B6: G20 (ssDNA)
DNA: GGGGACACAGCAACACACCCACCCACCAGCCCCAGCATCATGCCCATCCGTCGTGTGTG
Kd [3]: 2.8 nM | binding result [8]: no binding

B7: thiol-G20 (ssDNA)
DNA: B6 DNA
modifications: 5' HS-(CH2)6
binding result [9]: binds | binding result [6]: no binding

B8: G18 (ssDNA)
DNA: GGCCACAGCAGCCAGTACACCCACCCACCAGCCCCGTCAACGACCTGAACCTGCCCTGTGTG
binding result [2]: binds
